This note sets out measurements from the supplement of paper PMC5998384.

Data set [1] relates to HeLa Kyoto. Description: melting temperature (median over replicates), in situ; higher = more thermally stable.
The subject of data set [2] is HeLa Kyoto. The data set can be described thus: thermal stability score vs G1/S (z-score of summed log2 fold changes over temperatures); higher = more thermally stable than in G1/S.
In data set [3] the test system is HeLa Kyoto. Description: solubility change mitosis vs G1/S (difference of NP-40 vs SDS log2 ratios) (log2 ratio difference); higher = more soluble in mitosis.
The test system of data set [4] is HeLa Kyoto. Description: solubility in G1/S (NP-40 vs SDS abundance) (log2 ratio); higher = more soluble. The conditions noted are these: cell cycle stage: G1/S.
[5] abbreviates: cell cycle stage: early G1 (4.5 h after nocodazole release).
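Wherever melting temperature (median over replicates), in situ is given: HeLa Kyoto cells synchronized by double thymidine or nocodazole block, proteins quantified by TMT10plex mass spectrometry, three independent biological replicates.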
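Wherever solubility change mitosis vs G1/S (difference of NP-40 vs SDS log2 ratios) is given: synchronized HeLa Kyoto cells (double thymidine block for G1/S, nocodazole release for mitosis), protein amounts in NP-40 versus SDS lysates quantified by mass spectrometry, three biological replicates.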
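Wherever solubility in G1/S (NP-40 vs SDS abundance) is given: HeLa Kyoto cells arrested at G1/S by double thymidine block, proteins quantified by TMT10plex mass spectrometry in mild NP-40 versus SDS extracts, three biological replicates.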
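Wherever thermal stability score vs G1/S (z-score of summed log2 fold changes over temperatures) is given: synchronized HeLa Kyoto cells, proteins quantified by TMT10plex mass spectrometry, three biological replicates, mitosis taken 0.5 h after nocodazole release, G1/S directly after double thymidine block.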

As for “MSRDRFRSRGGGGGGFHRRGGGGGRGGLHDFRSPPPGMGLNQNRGPMGPGPGQSGPKPPIPPPPPHQQQQQPPPQQPPPQQPPPHQPPPHPQPHQQQQPPPPPQDSSKPVVAQGPGPAPGVGSAPPASSSAPPATPPTSGAPPGSGPGPTPTPPPAVTSAPPGAPPPTPPSSGVPTTPPQAGGPPPPPAAVPGPGPGPKQGPGPGGPKGGKMPGGPKPGGGPGLSTPGGHPKPPHRGGGEPRGGRQHHPPYHQQHHQGPPPGGPGGRSEEKISDSEGFKANLSLLRRPGEKTYTQRCRLFVGNLPADITEDEFKRLFAKYGEPGEVFINKGKGFGFIKLESRALAEIAKAELDDTPMRGRQLRVRFATHAAALSVRNLSPYVSNELLEEAFSQFGPIERAVVIVDDRGRSTGKGIVEFASKPAARKAFERCSEGVFLLTTTPRPVIVEPLEQLDDEDGLPEKLAQKNPMYQKERETPPRFAQHGTFEYEYSQRWKSLDEMEKQQREQVEKNMKDAKDKLESEMEDAYHEHQANLLRQDLMRRQEELRRMEELHNQEMQKRKEMQLRQEEERRRREEEMMIRQREMEEQMRRQREESYSRMGYMDPRERDMRMGGGGAMNMGDPYGSGGQKFPPLGGGGGIGYEANPGVPPATMSGSMMGSDMRTERFGQGGAGPVGGQGPRGMGPGTPAGYGRGREEYEGPNKKPRF [SFPQ]”, the figures for the melting temperature in the data set with HeLa Kyoto [1] (cell cycle stage: G1/S) and with HeLa Kyoto [1] (cell cycle stage: mitosis) were 47.7 °C and 48.9 °C, respectively. Further, the thermal stability score with HeLa Kyoto [2] (setting [5]) was 4.77; in the data set on HeLa Kyoto [2] (cell cycle stage: mitosis), 7.88. Further, the “solubility change mitosis (log2)” value in the data set with HeLa Kyoto [3] was 0.67. The “solubility in G1/S (log2)” value with HeLa Kyoto [4] is -0.264.
Turning to “MSRFPAVAGRAPRRQEEGERSRDLQEERLSAVCIADREEKGCTSQEGGTTPTFPIQKQRKKIIQAVRDNSFLIVTGNTGSGKTTQLPKYLYEAGFSQHGMIGVTQPRKVAAISVAQRVAEEMKCTLGSKVGYQVRFDDCSSKETAIKYMTDGCLLKHILGDPNLTKFSVIILDEAHERTLTTDILFGLLKKLFQEKSPNRKEHLKVVVMSATMELAKLSAFFGNCPIFDIPGRLYPVREKFCNLIGPRDRENTAYIQAIVKVTMDIHLNEMAGDILVFLTGQFEIEKSCELLFQMAESVDYDYDVQDTTLDGLLILPCYGSMTTDQQRRIFLPPPPGIRKCVISTNISATSLTIDGIRYVVDGGFVKQLNHNPRLGLDILEVVPISKSEALQRSGRAGRTSSGKCFRIYSKDFWNQCMPDHVIPEIKRTSLTSVVLTLKCLAIHDVIRFPYLDPPNERLILEALKQLYQCDAIDRSGHVTRLGLSMVEFPLPPHLTCAVIKAASLDCEDLLLPIAAMLSVENVFIRPVDPEYQKEAEQRHRELAAKAGGFNDFATLAVIFEQCKSSGAPASWCQKHWIHWRCLFSAFRVEAQLRELIRKLKQQSDFPKETFEGPKHEVLRRCLCAGYFKNVARRSVGRTFCTMDGRGSPVHIHPSSALHEQETKLEWIIFHEVLVTTKVYARIVCPIRYEWVRDLLPKLHEFNAHDLSSVARREVREDARRRWTNKENVKQLKDGISKDVLKKMQRRNDDKSISDARARFLERKQQRTQDHSDTRKETG [DHX40]”, the figures for the melting temperature with HeLa Kyoto [1] (cell cycle stage: G1/S) and with HeLa Kyoto [1] (cell cycle stage: mitosis) were 51.7 °C and 50.2 °C, respectively. Also, the thermal stability score with HeLa Kyoto [2] (setting [5]) was found to be 0.738; in the data set on HeLa Kyoto [2] (cell cycle stage: mitosis), 1.62. Moreover, in the data set with HeLa Kyoto [3], the “solubility change mitosis (log2)” value was -0.071. Further, in the data set on HeLa Kyoto [4], the “solubility in G1/S (log2)” value is -0.176.
On to “MSRGGSYPHLLWDVRKRSLGLEDPSRLRSRYLGRREFIQRLKLEATLNVHDGCVNTICWNDTGEYILSGSDDTKLVISNPYSRKVLTTIRSGHRANIFSAKFLPCTNDKQIVSCSGDGVIFYTNVEQDAETNRQCQFTCHYGTTYEIMTVPNDPYTFLSCGEDGTVRWFDTRIKTSCTKEDCKDDILINCRRAATSVAICPPIPYYLAVGCSDSSVRIYDRRMLGTRATGNYAGRGTTGMVARFIPSHLNNKSCRVTSLCYSEDGQEILVSYSSDYIYLFDPKDDTARELKTPSAEERREELRQPPVKRLRLRGDWSDTGPRARPESERERDGEQSPNVSLMQRMSDMLSRWFEEASEVAQSNRGRGRSRPRGGTSQSDISTLPTVPSSPDLEVSETAMEVDTPAEQFLQPSTSSTMSAQAHSTSSPTESPHSTPLLSSPDSEQRQSVEASGHHTHHQSDNNNEKLSPKPGTGEPVLSLHYSTEGTTTSTIKLNFTDEWSSIASSSRGIGSHCKSEGQEESFVPQSSVQPPEGDSETKAPEESSEDVTKYQEGVSAENPVENHINITQSDKFTAKPLDSNSGERNDLNLDRSCGVPEESASSEKAKEPETSDQTSTESATNENNTNPEPQFQTEATGPSAHEETSTRDSALQDTDDSDDDPVLIPGARYRAGPGDRRSAVARIQEFFRRRKERKEMEELDTLNIRRPLVKMVYKGHRNSRTMIKEANFWGANFVMSGSDCGHIFIWDRHTAEHLMLLEADNHVVNCLQPHPFDPILASSGIDYDIKIWSPLEESRIFNRKLADEVITRNELMLEETRNTITVPASFMLRMLASLNHIRADRLEGDRSEGSGQENENEDEE [DCAF6]”, for which the melting temperature in the data set on HeLa Kyoto [1] (cell cycle stage: G1/S) was 54.7 °C; in the data set on HeLa Kyoto [1] (cell cycle stage: mitosis), 54.9 °C. Besides, the thermal stability score in the data set with HeLa Kyoto [2] (setting [5]) is -1.47; in the data set with HeLa Kyoto [2] (cell cycle stage: mitosis) it was -2.02. In addition, the “solubility change mitosis (log2)” value in the data set on HeLa Kyoto [3] was found to be 0.0043. Further, the “solubility in G1/S (log2)” value in the data set on HeLa Kyoto [4] was -0.176.
In the data set with HeLa Kyoto [1] (cell cycle stage: G1/S), “MSRHEGVSCDACLKGNFRGRRYKCLICYDYDLCASCYESGATTTRHTTDHPMQCILTRVDFDLYYGGEAFSVEQPQSFTCPYCGKMGYTETSLQEHVTSEHAETSTEVICPICAALPGGDPNHVTDDFAAHLTLEHRAPRDLDESSGVRHVRRMFHPGRGLGGPRARRSNMHFTSSSTGGLSSSQSSYSPSNREAMDPIAELLSQLSGVRRSAGGQLNSSGPSASQLQQLQMQLQLERQHAQAARQQLETARNATRRTNTSSVTTTITQSTATTNIANTESSQQTLQNSQFLLTRLNDPKMSETERQSMESERADRSLFVQELLLSTLVREESSSSDEDDRGEMADFGAMGCVDIMPLDVALENLNLKESNKGNEPPPPPL [KCMF1]” yielded a melting temperature of 51.7 °C. Further, the results for the thermal stability score in the data set with HeLa Kyoto [2] (setting [5]) and in the data set with HeLa Kyoto [2] (cell cycle stage: mitosis) were -1.31 and -1.41, respectively. Further, in the data set with HeLa Kyoto [3], the “solubility change mitosis (log2)” value is 0.00437. The “solubility in G1/S (log2)” value in the data set on HeLa Kyoto [4] was -0.415.
For the sequence “MSRLRALLGLGLLVAGSRVPRIKSQTIACRSGPTWWGPQRLNSGGRWDSEVMASTVVKYLSQEEAQAVDQELFNEYQFSVDQLMELAGLSCATAIAKAYPPTSMSRSPPTVLVICGPGNNGGDGLVCARHLKLFGYEPTIYYPKRPNKPLFTALVTQCQKMDIPFLGEMPAEPMTIDELYELVVDAIFGFSFKGDVREPFHSILSVLKGLTVPIASIDIPSGWDVEKGNAGGIQPDLLISLTAPKKSATQFTGRYHYLGGRFVPPALEKKYQLNLPPYPDTECVYRLQ [APOA1BP]”, the melting temperature in the data set on HeLa Kyoto [1] (cell cycle stage: G1/S) stood at 56.4 °C; in the data set on HeLa Kyoto [1] (cell cycle stage: mitosis), 55.3 °C. The figures for the thermal stability score in the data set on HeLa Kyoto [2] (setting [5]) and in the data set on HeLa Kyoto [2] (cell cycle stage: mitosis) were -2.06 and -3.77, respectively. Besides, the “solubility change mitosis (log2)” value in the data set with HeLa Kyoto [3] is 0.417. For the same sequence, the “solubility in G1/S (log2)” value in the data set on HeLa Kyoto [4] was determined as 0.462.
For “MSRRALRRLRGEQRGQEPLGPGALHFDLRDDDDAEEEGPKRELGVRRPGGAGKEGVRVNNRFELINIDDLEDDPVVNGERSGCALTDAVAPGNKGRGQRGNTESKTDGDDTETVPSEQSHASGKLRKKKKKQKNKKSSTGEASENGLEDIDRILERIEDSTGLNRPGPAPLSSRKHVLYVEHRHLNPDTELKRYFGARAILGEQRPRQRQRVYPKCTWLTTPKSTWPRYSKPGLSMRLLESKKGLSFFAFEHSEEYQQAQHKFLVAVESMEPNNIVVLLQTSPYHVDSLLQLSDACRFQEDQEMARDLVERALYSMECAFHPLFSLTSGACRLDYRRPENRSFYLALYKQMSFLEKRGCPRTALEYCKLILSLEPDEDPLCMLLLIDHLALRARNYEYLIRLFQEWEAHRNLSQLPNFAFSVPLAYFLLSQQTDLPECEQSSARQKASLLIQQALTMFPGVLLPLLESCSVRPDASVSSHRFFGPNAEISQPPALSQLVNLYLGRSHFLWKEPATMSWLEENVHEVLQAVDAGDPAVEACENRRKVLYQRAPRNIHRHVILSEIKEAVAALPPDVTTQSVMGFDPLPPSDTIYSYVRPERLSPISHGNTIALFFRSLLPNYTMEGERPEEGVAGGLNRNQGLNRLMLAVRDMMANFHLNDLEAPHEDDAEGEGEWD [TCF25]”, the melting temperature was determined as 49.4 °C in the data set with HeLa Kyoto [1] (cell cycle stage: G1/S) and 48.4 °C in the data set on HeLa Kyoto [1] (cell cycle stage: mitosis). In addition, the thermal stability score with HeLa Kyoto [2] (setting [5]) was found to be 0.666; in the data set with HeLa Kyoto [2] (cell cycle stage: mitosis), 0.63. Moreover, the “solubility change mitosis (log2)” value in the data set with HeLa Kyoto [3] was 0.0389. In the data set with HeLa Kyoto [4], the “solubility in G1/S (log2)” value came out at 0.0319.
